Measured values as given in the DeepSol protein solubility set.

Assay: soluble on expression in E. coli; label from the status in PepcDB or PDB records

Row | Sequence | soluble on expression in E. coli
1 | SKIASFDVDAQKGFTPLCPDELPVPGGDAIGGALNQLASRAALRLGSKDAHSPKAAWVVESAEQMLRPLAYPDADLTWVSHCVPGTPGFELLDELPRPIDYDFFVWKGVEPDLHPYGACYHDLAERRSTGVIEYLRQNGVSHVLVGGLALDYCVKNTALQLRRAGFEVLLYLPACRAIAEDTAQRACDEMRDAGVILCADLERLDSALA | not soluble
2 | MGSSHHHHHHGGTGENLYFQGGSGMSNSTEQALLQIAQQIERAVDDEIDRIDQMDDDEILAIRQKRLKQLKEIQARRDEWLRKGHGQYLEIAEPKEFFDNVQSSERIVVHFMRRSTPRCEIIERHLRTIAHEHFETRFCYVDVERIPSLPERFNVMMLPTLMLVEKGHTFHSIIGFDEFGGTDDFTTDTVTQVLAHYGMVNEKGMFAADQNDE | soluble
3 | MIKWGFIGCGEVTKTKSGPAFQKVEHSEVVAVMSRDGAKAKAYAKERGIRKWYDDAQELIDDPEVNAIYIATPPSSHATYAIMAMKAGKPAYIEKPMAVTYEECTRINRISKETGVPCFVAYYRRYLPYFQKVKEMVENGSIGNVINVQVRFAQPPRDLDYNRENLPWRVQADIAGGGYFYDLAPHQIDLLQDMFGCILEASGYKSNRGGLYPAEDTLSACFQFDNGLVGSGSWCFVAHDSAREDRIEIIGDKGMICFSVFTYEPIGLHTERGREEICIGNPEHVQQPLIQAVVDHLLGKSVCSCDGESATLTNWVMDKILGKL | not soluble
4 | MAEQISHKKSLRVSSLNKDRRLLLREFYNLENEPNKGRQEARIGEKASEAHSGEEQVTDVNIDTEANTEKPVKDDELSATEEDLKEGSEDAEEEIKNLPFKRLVQIHNKLLGKETETNNSIKNTIYENYYDLIKVNDLLKEITNANEDQINKLKQTVESLIKEL | soluble
5 | GPGSMAKRDKRRTSLVQQNFDSLKRFYAISPFAAAERATLPPVYSGVYSRRAAMNSYHVVGSSRDQIVLEAMRTFTPSVCTKEVMDLYLEVAALVSLYFDTKEQLLALPDV | not soluble
6 | MSDPLHVTFVCTGNICRSPMAEKMFAQQLRHRGLGDAVRVTSAGTGNWHVGSCADERAAGVLRAHGYPTDHRAAQVGTEHLAADLLVALDRNHARLLRQLGVEAARVRMLRSFDPRSGTHALDVEDPYYGDHSDFEEVFAVIESALPGLHDWVDERLARNGPS | soluble
7 | MNMNAKIIDQDNKGIGVRVHDNDETEHTVAVGFDGEIQGHSQDGYPDDPAKRTGKENEYVSQARRYAKYYVAKEKGYDVLPWDRDTAAMQRVQTAIESLSDEDFEKYFGTYFDQINSRLPNVTAPVPEPDAVGDDEFVLYLLDVYLDEAGRIEAVSDIHFLYLDDNRERQVVLGDQPLNRDPDARLQLKPNYLPSLEVAQEFFVYHLRCQIRDCYLLRGEEPPEQYRVIGPGLYDAATRYLYEDRPYRPYHKLHADIPGYSLEFDYGFGEQGKEMAKIAGAVADNK | not soluble
8 | MSLTKSSKYDTAFLKENMMGPNAIKIIEELLESLKLEEGMRVLDLGCGKGLTSIFLAKEYGVTVFATDLWISATENYERIKSMGLEDKIIPIHAEAHDLPFAQEYFDVAISVDAYHYFGIEEDYLTKHLAPLVKKGGKIAVAVPGLKKEFENGVPEKLQPYWFEDMTLTLHSLDWWYNLWKKADSVSIEECKELKCLEETWQDWLSCDNDYARRDIGMMEAEGGNYFNLVSIIATRLEGHHHHHH | soluble
9 | MQCYSIVGINYIQIYKAVTRNGIKHNIVVIKNSDYIFTITHYSPRTEYWTIVGNTDRQFYDANVLHNCLYIIGGMINNRHVYSVSRVDLKTKKWKTVTNMSSLKSEVSTCVNDGKLYVIGGLEFSISTGIAEYLKHGTSKWKRLPNLITPRYSGASVFVNDDIYVMGGVYTTMRNM | not soluble
